This is an account of results in PMC5433351.

Assay type in all cases: biochemical, Metallosphaera sedula
Substrate in data set [1]: CC(C)(COP(=O)(O)OP(=O)(O)OC[C@H]1O[C@@H](n2cnc3c(N)ncnc32)[C@H](O)[C@@H]1OP(=O)(O)O)[C@@H](O)C(=O)NCCC(=O)NCCSC(=O)CCC(=O)O
As to the kind of experiment: NADPH consumption, spectrophotometric. The conditions noted are these: NADPH 0.5 mM, MgCl2 5 mM, DTT 4 mM, pH 6.5, 65°C.

Substrate in data set [2]: NC(=O)C1=CN([C@@H]2O[C@H](COP(=O)(O)OP(=O)(O)OC[C@H]3O[C@@H](n4cnc5c(N)ncnc54)[C@H](OP(=O)(O)O)[C@@H]3O)[C@@H](O)[C@H]2O)C=CC1
Description: NADPH consumption, spectrophotometric. The note with it: succinyl-CoA as substrate, pH 6.5, 65°C, varied: cofactor.

Substrate in the data set “purified protein”: O=CCCC(=O)O
Description: purified protein. The note with it: NADPH 0.5 mM, MgCl2 5 mM, DTT 5 mM, pH 6.5, 65°C.

B1: MCR, malonyl-CoA/succinyl-CoA reductase (Metallosphaera sedula DSM 5348) (protein)
chain: MRRTLKAAILGATGLVGIEYVRMLADHPYIKPTYLAGKGSVGKPYGEIVRWQTVGNVPKEVANQEVKPTDPKLMDDVDIIFSPLPQGAAGPVEEQFAKLGFNVISNSPDHRFDMDVPMIIPEVNPHTVTLIDEQRKRRDWKGFIVTTPLCTAQGAAIPLTPIYQNFKMSGVMITTMQSLSGAGYPGIASLDIVDNALPLGDGYDAKTVKEITRILSEVKRNVQEPGVNEITLDATTHRIATIHGHYEVAYVTFKEDTDVRKVMESMESFKGEPQDLKLPTAPEKPIIVTTQDARPQVFFDRWAGNPPGMSVVVGRLKQVNPRTIRFVSLIHNTVRGAAGGGVLTAELLVEKGYIDKR
A word on the Km: it is the concentration of substrate that gives half-maximal velocity. Usually Vmax stands for the rate approached at saturating substrate. One may read the kcat/Km as the turnover number divided by the Michaelis constant. In the case of B1, in data set [1], the Km was found to be 191 µM, the Vmax was 15.9 µmol/min/mg and the kcat/Km is 54500 M⁻¹ s⁻¹. Also, in data set [2], the Km was found to be 79.2 µM, the Vmax came to 13.1 µmol/min/mg and the kcat/Km was 109000 M⁻¹ s⁻¹.

B2: SSR, succinic semialdehyde reductase (Metallosphaera sedula DSM 5348) (protein)
chain: MKAAVLHTYKEPLSIEDVNISQPKAGEVKIKVKATGLCHSDVNVFEGKTPVPPPVVAGHEISGIVEEVGPGVTRVKPGDRVISAFIHPCGKCGNCVAGKENLCETFSQVRLKGVMPDGTSRLSKDGKEIRTFLGGGFAEYAIVGENALTRVPEDMDLEKVAVLGCAGLTGYGAISSSKIEPGDTVAVIGVGGVGLSTIQLLRASGAGRIIAVGTKKWKLDRAMELGATDVVNSKEIDPVKAIKEITGGGPQVVIEAGGNEDTIHMALDSVRIGGKVVLVGLPPATAMIPIRVASIVRGGIEVVGNYGGRPRVDMPKLLELVRQGRYDPSRLVTGRFRLEEINEAVKMLEEGEAIRSLIIP
B2: in the data set “purified protein”, the Km amounted to 27 µM, the Vmax was found to be 683 µmol/min/mg and the kcat/Km is 1.6e+07 M⁻¹ s⁻¹.
